Data published in PMC4310248.

Molecular target: Exo10Rrp6 (crystal; Exo9 core + Rrp6 128-685 D238N) (Saccharomyces cerevisiae, UniProt Q12149;P38792;Q08285;P53859;P46948;Q05636;Q12277;P48240;P53256;P25359 …, D238N;Rrp6:)
Assay: X-ray crystallography

Binder: AAAAAAAAAAAAAAAAAAAAAAAA (ssRNA) [polyA24]
- binding result: binds
